One molecule from patent US20230044037A1 (INTERVET, published 2023) can be followed below.

The target of this assay is T1, canine IL-4 receptor alpha (IL-4Rα) on DH82 cells (canine).
T1 construct: Endogenous receptor of the DH82 cells in the STAT-6 assay; also called canine IL-4Rα; IL-4R alpha
T1 chain: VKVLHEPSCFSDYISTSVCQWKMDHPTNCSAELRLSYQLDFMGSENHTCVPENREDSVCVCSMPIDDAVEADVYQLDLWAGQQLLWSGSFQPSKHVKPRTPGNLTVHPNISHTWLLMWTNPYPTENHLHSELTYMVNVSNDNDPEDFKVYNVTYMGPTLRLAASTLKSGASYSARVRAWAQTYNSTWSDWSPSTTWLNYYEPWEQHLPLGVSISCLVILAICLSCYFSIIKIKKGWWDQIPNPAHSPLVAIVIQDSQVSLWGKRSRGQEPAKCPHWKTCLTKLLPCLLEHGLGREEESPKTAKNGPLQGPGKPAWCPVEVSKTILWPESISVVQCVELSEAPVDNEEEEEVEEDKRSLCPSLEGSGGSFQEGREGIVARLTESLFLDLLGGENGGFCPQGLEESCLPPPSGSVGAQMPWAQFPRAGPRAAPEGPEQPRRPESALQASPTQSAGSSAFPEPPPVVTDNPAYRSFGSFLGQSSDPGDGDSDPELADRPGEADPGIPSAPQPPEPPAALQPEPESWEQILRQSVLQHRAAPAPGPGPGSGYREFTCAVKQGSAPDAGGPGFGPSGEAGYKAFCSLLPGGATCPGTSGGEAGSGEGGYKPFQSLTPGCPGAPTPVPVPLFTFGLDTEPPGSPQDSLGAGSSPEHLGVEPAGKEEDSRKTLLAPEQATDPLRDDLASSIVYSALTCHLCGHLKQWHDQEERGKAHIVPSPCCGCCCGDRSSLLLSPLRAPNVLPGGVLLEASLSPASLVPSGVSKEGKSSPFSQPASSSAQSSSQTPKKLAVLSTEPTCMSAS
Put plainly: told from inhibition of IL-4- and IL-13-mediated STAT-6 phosphorylation in DH82 cells (AlphaLISA). Background: Alpha assays give light when donor and acceptor beads are brought close together.

B1: c152H11-H3L3 (c152H11VL3-cCLk-s/c152H11VH3-cIgG-Bm) (antibody, V domains shown)
VH: EVQLVESGGDLVKPGGSLRLSCAASGFTFSSYGMSWVRQAPDKRLQWVATISRGGDYTYYPDSVKGRFTISRDNAKNTLYLQMNSLRAEDTAMYYCARGTLNNRGFASWGQGTLVTVSS
VL: EIVMTQSPASLSLSQEEKVTITCKASQNVGTNVAWYQQKPGQAPKLLIYSASYRYSGLPDRFSGSGSGTDFSFTISSLEPEDVAEFFCQQYNSYPYTFGQGTKLEIKR
notes: Caninized anti-canine IL-4R alpha antibody: VH3 heavy chain on modified canine IgG-B (IgG-Bm), kappa light chain L3
As for B1, the binding result is “binds”.
